{"source": "patent US20100041597A1", "about": "(published 2010)", "binders": {"B1": {"name": "PRE 1 (peptide)", "peptide": "RRKKGGKDFVVKR", "notes": "Synthetic peptide, solid phase synthesis; termini given free; also called peptide PRE 1"}}, "key": {"[1]": {"biological_target": "T1, PKC-βII (purified isoform) (Homo sapiens (Human), UniProt P05771 2-621)", "T1 construct": "also called PKC-beta II", "T1 sequence (P05771 other isoform, or with tags, fused parts or gaps limits assumed)": "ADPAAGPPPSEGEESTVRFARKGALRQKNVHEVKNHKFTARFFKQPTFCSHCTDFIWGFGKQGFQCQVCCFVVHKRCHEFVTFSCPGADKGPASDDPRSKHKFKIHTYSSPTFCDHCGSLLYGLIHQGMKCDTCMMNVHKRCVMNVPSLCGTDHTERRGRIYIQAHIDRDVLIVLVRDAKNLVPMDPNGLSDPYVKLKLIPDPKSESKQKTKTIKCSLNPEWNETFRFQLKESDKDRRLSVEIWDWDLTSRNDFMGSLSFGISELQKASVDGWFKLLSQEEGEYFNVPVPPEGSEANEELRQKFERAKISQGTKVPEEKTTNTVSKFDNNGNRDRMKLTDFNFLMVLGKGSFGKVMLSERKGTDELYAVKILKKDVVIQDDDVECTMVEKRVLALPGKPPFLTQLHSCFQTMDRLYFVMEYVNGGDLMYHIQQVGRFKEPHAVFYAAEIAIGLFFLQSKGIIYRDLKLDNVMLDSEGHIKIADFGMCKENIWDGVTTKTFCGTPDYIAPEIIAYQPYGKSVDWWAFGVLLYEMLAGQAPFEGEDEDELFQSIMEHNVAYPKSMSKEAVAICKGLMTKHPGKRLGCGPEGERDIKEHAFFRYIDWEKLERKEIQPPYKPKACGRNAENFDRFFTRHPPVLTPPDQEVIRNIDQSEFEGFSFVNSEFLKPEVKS", "experiment": "competitive ELISA on purified PKC-βII vs anti-PKC-βII Ab; PRE 100 µM", "protocol": "(§1) Greiner 96 well ELISA plates were coated with the appropriate PKC isoform diluted in PBSN (PBS with Calcium/Magnesium+0.05% Sodium azide w/w). 50 μL/well at 250 ng/mL was used. Control wells contained PBSN only. Plates were incubated overnight at 4° C.\n(§2) The plates were washed 3 times with 200 μL of dH₂O per well, then 100 μL of blocking solution was added per well and the plate incubated for 1 h at 37° C. The washing steps with dH₂O were repeated and 50 μL of the appropriate PRE solution (PRE stock solution [20 mM in DMSO] diluted in PBSN) was added and the plate incubated for 1 h at room temperature.\n(§3) 50 μL of 1:1000 dilution of Alkaline Phosphatase (AP) conjugated antibody (anti-rabbit for all except zeta, which was anti-goat) was then added and the plate incubated for 1 h at room temperature. Washing with dH₂O was then repeated. Finally, 100 μL of pNPP solution in pNPP buffer (2 mM MgCl₂, 100 mM Sodium bicarbonate in water, pH 9.8) was added to all wells and incubated for 8 minutes for α, βI, βII ε, and ζ, or for 15-20 mins for […] (until sufficient coloration is observed). The reaction was stopped by addition of Stop solution (2N NaOH) and the absorbance at 405 nm was read on a Galaxy Plate reader."}, "[2]": {"biological_target": "T2, PKC-ι (endogenous, human cell extracts) (human, UniProt P41743 2-596)", "T2 construct": "also called PKC-iota", "T2 sequence (looked up)": "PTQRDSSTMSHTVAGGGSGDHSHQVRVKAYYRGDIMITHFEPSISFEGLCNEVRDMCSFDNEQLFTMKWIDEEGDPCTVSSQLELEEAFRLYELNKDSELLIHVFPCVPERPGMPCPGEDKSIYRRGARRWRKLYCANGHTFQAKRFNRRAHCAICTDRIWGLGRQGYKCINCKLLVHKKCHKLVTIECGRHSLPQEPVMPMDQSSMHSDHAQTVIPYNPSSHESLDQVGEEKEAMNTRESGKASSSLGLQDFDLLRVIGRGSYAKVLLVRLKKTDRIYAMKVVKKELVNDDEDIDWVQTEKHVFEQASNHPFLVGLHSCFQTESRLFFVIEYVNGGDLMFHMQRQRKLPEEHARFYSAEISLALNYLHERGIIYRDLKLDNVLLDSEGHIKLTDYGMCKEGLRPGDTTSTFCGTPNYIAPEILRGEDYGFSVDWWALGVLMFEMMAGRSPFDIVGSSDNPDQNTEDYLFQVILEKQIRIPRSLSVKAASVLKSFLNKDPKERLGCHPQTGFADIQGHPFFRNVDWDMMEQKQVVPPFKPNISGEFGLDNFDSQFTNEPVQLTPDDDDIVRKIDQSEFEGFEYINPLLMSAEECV", "experiment": "Western-blot competition on cell extracts against the anti-PKC-ι primary antibody; band densitometry", "protocol": "Binding efficiency and specificity of the peptides PRE 2, 3, 4, 5, 6, 7, 8, 9, 10, 11, 12 and 13 (see Table 3) was also tested using cytoplasmic extracts from different cell lines expressing appropriate PKC isoforms as described for Example 1. Briefly, the protein cytoplasmic extracts were separated by electrophoresis and transferred onto nitrocellulose membranes by standard Western blotting procedures. The bands on the Western blots were detected with matching primary antibodies and alkaline phosphatase conjugated secondary antibody. The bands were then scanned and the relative density measurements obtained.\nThis procedure to assess the binding characteristics of the PREs is based on competition binding of the PRE with the primary anti-isoform PKC specific antibodies. The lower the measured band density, the greater the binding of the PRE to the PKC isoform. The PREs were added at 10 and 20 times (10×, 20×) the primary antibody concentration, according to classical competition between antigenic peptide and primary antibody. The following cell lines (obtained from the ATCC) were used: H661—NCI human lung carcinoma NSCLC; MDAMB231—human highly invasive breast cancer cell line from pleural effusion; LS180—human colon adenocarcinoma; LnCAP—human prostate adenocarcinoma; CCD16Lu—human lung fibroblasts; Du145—human prostate carcinoma brain metastasis, and T24—human bladder carcinoma."}, "[3]": {"biological_target": "T3, PKC-βI (purified isoform) (Homo sapiens (Human), UniProt P05771 2-671)", "T3 construct": "also called PKC-beta I", "T3 sequence (P05771 2-671 limits assumed)": "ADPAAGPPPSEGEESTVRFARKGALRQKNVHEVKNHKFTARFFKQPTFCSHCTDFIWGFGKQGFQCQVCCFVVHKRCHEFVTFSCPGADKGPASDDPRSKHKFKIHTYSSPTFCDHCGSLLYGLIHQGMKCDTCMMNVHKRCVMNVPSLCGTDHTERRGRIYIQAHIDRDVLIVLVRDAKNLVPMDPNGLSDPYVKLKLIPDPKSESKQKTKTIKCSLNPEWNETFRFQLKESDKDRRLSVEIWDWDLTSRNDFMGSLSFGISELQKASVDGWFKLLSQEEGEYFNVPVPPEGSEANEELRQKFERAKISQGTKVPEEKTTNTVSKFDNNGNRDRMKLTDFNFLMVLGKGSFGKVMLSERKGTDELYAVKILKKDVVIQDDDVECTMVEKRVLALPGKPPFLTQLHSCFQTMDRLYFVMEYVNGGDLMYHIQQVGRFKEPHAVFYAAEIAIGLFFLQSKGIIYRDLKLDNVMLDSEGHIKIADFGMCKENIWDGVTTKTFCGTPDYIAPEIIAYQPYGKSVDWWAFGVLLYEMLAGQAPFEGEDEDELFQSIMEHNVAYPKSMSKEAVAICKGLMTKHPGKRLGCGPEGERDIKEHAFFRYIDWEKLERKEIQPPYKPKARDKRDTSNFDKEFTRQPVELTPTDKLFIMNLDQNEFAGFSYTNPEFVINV", "experiment": "competitive ELISA on purified PKC-βI vs anti-PKC-βI Ab; PRE 200 µM", "protocol": "as §1, §2, §3"}, "[4]": {"biological_target": "T4, PKC-α (endogenous, human cell lysates and cells) (human, UniProt P17252 2-672)", "T4 construct": "Endogenous protein of human cell lysates, on Western blot membranes (denatured) or in fixed cells; also called PKC-alpha; PKC-A", "experiment": "anti-PKC-α immunofluorescence, V5E-transfected IMR-32 cells loaded with PRE (label on PKC-α and V5E); control with endocytosis reagent 113", "from_the_text": "Neuroblastoma cells from the IMR-32 cell line were stably transfected with a vector containing the V5E sequence of PKC-α as outlined above in Example 13. The V5E sequence is part of the antigenic amino acid sequence that is used to raise the commercially available anti-PKC-α isoform-specific antibody.\nThe peptides PRE 1, 2, 3, 4, 5, 6, 7, 8, 9, 10, 11, 12 and 13 (see Table 3) were incorporated into the transfected IMR-32 cells via pinocytic endocytosis (Molecular Probes) according to the supplier's recommendations. Following fixation and permeabilization, PKC-α was detected using an Alexa fluor secondary antibody (as described above in Example 8)."}, "[5]": {"biological_target": "T1, PKC-βII (purified isoform)", "experiment": "summary grade, purified isoform ELISA"}, "[6]": {"biological_target": "T3, PKC-βI (purified isoform)", "experiment": "competitive ELISA on purified PKC-βI vs anti-PKC-βI Ab; PRE 100 µM", "protocol": "as §1, §2, §3"}, "PKC-δ (purified isoform) [7]": {"biological_target": "T5, PKC-δ (purified isoform) (Homo sapiens (Human), UniProt Q05655 1-676)", "T5 construct": "also called PKC-delta; PKCdelta", "T5 sequence (Q05655 whole entry, stated change not applied, canonical isoform)": "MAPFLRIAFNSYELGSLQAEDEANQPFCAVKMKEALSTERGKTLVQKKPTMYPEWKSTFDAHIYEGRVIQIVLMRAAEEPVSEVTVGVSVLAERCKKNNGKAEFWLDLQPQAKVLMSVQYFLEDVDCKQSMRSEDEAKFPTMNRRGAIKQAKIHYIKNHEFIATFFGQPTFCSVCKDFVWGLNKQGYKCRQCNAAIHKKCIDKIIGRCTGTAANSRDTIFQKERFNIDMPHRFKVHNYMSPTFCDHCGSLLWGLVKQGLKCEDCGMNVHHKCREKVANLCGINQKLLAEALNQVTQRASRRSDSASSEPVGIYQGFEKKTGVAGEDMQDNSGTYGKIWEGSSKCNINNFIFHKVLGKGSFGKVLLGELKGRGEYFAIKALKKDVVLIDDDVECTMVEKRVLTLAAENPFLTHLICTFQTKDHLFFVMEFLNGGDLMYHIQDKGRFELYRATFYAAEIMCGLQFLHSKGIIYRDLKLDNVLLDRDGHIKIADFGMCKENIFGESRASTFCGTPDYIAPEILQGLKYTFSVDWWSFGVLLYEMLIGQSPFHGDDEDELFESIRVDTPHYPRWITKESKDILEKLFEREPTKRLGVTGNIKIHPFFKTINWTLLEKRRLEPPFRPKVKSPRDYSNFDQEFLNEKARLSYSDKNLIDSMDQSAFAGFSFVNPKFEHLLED", "experiment": "competitive ELISA on purified PKC-δ vs anti-PKC-δ Ab; PRE 100 µM", "protocol": "as §1, §2, §3"}, "[8]": {"biological_target": "T3, PKC-βI (purified isoform)", "experiment": "competitive ELISA on purified PKC-βI vs anti-PKC-βI Ab; PRE 50 µM", "protocol": "as §1, §2, §3"}, "PKC-δ (purified isoform) [9]": {"biological_target": "T5, PKC-δ (purified isoform)", "experiment": "competitive ELISA on purified PKC-δ vs anti-PKC-δ Ab; PRE 200 µM", "protocol": "as §1, §2, §3"}, "[10]": {"biological_target": "T1, PKC-βII (purified isoform)", "experiment": "competitive ELISA on purified PKC-βII vs anti-PKC-βII Ab; PRE 200 µM", "protocol": "as §1, §2, §3"}, "[11]": {"biological_target": "T1, PKC-βII (purified isoform)", "experiment": "competitive ELISA on purified PKC-βII vs anti-PKC-βII Ab; PRE 50 µM", "protocol": "as §1, §2, §3"}, "PKC-δ (purified isoform) [12]": {"biological_target": "T5, PKC-δ (purified isoform)", "experiment": "competitive ELISA on purified PKC-δ vs anti-PKC-δ Ab; PRE 50 µM", "protocol": "as §1, §2, §3"}}, "data": [{"binder": "B1", "values": [{"measurement": "binding capacity (%)", "setting": "[1]", "value": 0, "unit": "%"}, {"measurement": "binding result", "setting": "[2]", "value": "no binding (tested: 20X the primary antibody concentration)"}, {"measurement": "binding capacity (%)", "setting": "[3]", "value": 13.4, "unit": "%"}, {"measurement": "Relative Fluorescence Intensity", "setting": "[4]", "value": 79}, {"measurement": "binding result", "setting": "[5]", "value": "no binding (tested: 200 µM)"}, {"measurement": "binding capacity (%)", "setting": "[6]", "value": 13.9, "unit": "%"}, {"measurement": "binding capacity (%)", "setting": "PKC-δ (purified isoform) [7]", "value": 45.2, "unit": "%"}, {"measurement": "binding capacity (%)", "setting": "[8]", "value": 19.8, "unit": "%"}, {"measurement": "binding capacity (%)", "setting": "PKC-δ (purified isoform) [9]", "value": 49.4, "unit": "%"}, {"measurement": "binding capacity (%)", "setting": "[10]", "value": 0, "unit": "%"}, {"measurement": "binding capacity (%)", "setting": "[11]", "value": 0, "unit": "%"}, {"measurement": "binding capacity (%)", "setting": "PKC-δ (purified isoform) [12]", "value": 35.7, "unit": "%"}]}]}
